The target in experiment [1] is partially purified Campath-1 antigen (obtained from a glycolipid extract from human spleen) (human) (UniProt P31358). The experiment can be described thus: direct binding assay on coated partially purified Campath-1 antigen; concentration at 50% binding.
The target of experiment [2] is Campath-1 antigen on human lymphocytes (human) (UniProt P31358). The experiment can be described thus: cell-based or functional assay.
Experiment [3] addresses partially purified Campath-1 antigen (obtained from a glycolipid extract from human spleen) (human) (UniProt P31358). The experiment can be described thus: direct binding assay on coated partially purified Campath-1 antigen, biotin anti-rat IgG2b detection; concentration at 50% maximal binding.
Experiment [4] concerns the target hen eggwhite lysozyme (hen) (UniProt P00698). The experiment can be described thus: fluorescence titration with lysozyme, 50 nM antibody, 25°.
Experiment [5] shares this target. The experiment can be described thus: fluorescence quenching titration with hen eggwhite lysozyme.

Sequence of hen eggwhite lysozyme (hen) (P00698 19-147 limits assumed): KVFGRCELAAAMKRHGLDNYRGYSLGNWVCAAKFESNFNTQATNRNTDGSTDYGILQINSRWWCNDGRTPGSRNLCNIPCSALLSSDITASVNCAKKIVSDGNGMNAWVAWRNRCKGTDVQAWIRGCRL
Sequence of RaVHCAMP-RaIgG2B (P20761 whole entry): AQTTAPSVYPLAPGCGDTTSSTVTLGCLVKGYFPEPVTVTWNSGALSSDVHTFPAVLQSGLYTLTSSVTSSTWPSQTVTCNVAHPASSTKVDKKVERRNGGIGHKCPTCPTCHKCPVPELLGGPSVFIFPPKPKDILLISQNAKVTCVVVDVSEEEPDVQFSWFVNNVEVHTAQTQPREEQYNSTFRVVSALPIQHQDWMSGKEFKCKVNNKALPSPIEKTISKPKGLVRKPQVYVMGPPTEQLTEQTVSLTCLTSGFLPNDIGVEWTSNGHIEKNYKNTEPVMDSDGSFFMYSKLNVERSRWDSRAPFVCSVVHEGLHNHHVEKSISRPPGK
Sequence of HuVHCAMP(Ser27 to Phe)-RaIgG2B (P20761 whole entry): as above
Sequence of HuVHCAMP(Ser27 to Phe, Ser30 to Thr)-RaIgG2B (P20761 whole entry): as above
Sequence of HuVHCAMP-RaIgG2B (P20761 whole entry): as above

As for “RaVHCAMP-RaIgG2B (from UniProt P20761 1-333) (antibody)”, the results for the EC50 in experiment [1] and in experiment [3] were 1.01 µg/mL and 0.7 µg/mL, respectively. The substance also showed a Concentration of antibody in ug/ml at 50% binding or lysis: complement lysis in experiment [2] of 2.1 µg/mL. With D1.3 (H2K2) (antibody), in experiment [4], the equivalence point (binding sites per mole) (binding sites per mole) was 1.8. In experiment [5], this substance displayed a Kd of 14.4 nM.

For “recombinant D1.3 (H*2K2) (reassociated) (antibody)”, in experiment [5], the dissociation constant (Kd) came out at 9.2 nM. As to “HuVHCAMP-RaIgG2B (from UniProt P20761 1-333) (antibody)”, the EC50 in experiment [3] was found to be 27.3 µg/mL. In the case of “HuVHCAMP(Ser27 to Phe)-RaIgG2B (from UniProt P20761 1-333) (antibody)”, in experiment [2], the Concentration of antibody in ug/ml at 50% binding or lysis: complement lysis amounted to 16.3 µg/mL. For the same substance, the EC50 in experiment [3] was found to be 1.8 µg/mL.

In experiment [2], “HuVHCAMP(Ser27 to Phe, Ser30 to Thr)-RaIgG2B (from UniProt P20761 1-333) (antibody)” showed a Concentration of antibody in ug/ml at 50% binding or lysis: complement lysis of 17.6 µg/mL. This substance also registered an EC50 in experiment [3] of 2 µg/mL. In the case of D1.3 (H2K2) (reassociated) (antibody), the Kd in experiment [5] was determined as 11.4 nM.

Broadly, the EC50 is the midpoint of the concentration-response curve. A lower EC50 goes with greater potency. Broadly, the Kd is the constant that tells how readily two partners part at equilibrium. A higher Kd goes with lower affinity.

For the origin of these results see patent publication US6982321.
